Laboratory results reported in patent publication US20240417469A1 (CONCEPT TO MEDICINE BIOTECH, published 2024).
Where a chain is given by its changes, count along the chain named.

B1: Hu153A6B1-9 (antibody, V domains shown)
VH: EVQLQESGPGLVKPSETLSLTCTVSGGSISSYNIHWVRQPPGKGLEWMGRIRYNGDTSYNSALKSRLTISRDTSKNQFSLKLSSVTAADTAVYYCARGPYGGSREPLFDYWGQGTMVTVSS
VL: DIQMTQSPSSLSASVGDRVTITCKTSQNINKYLNWFQQKPGKAPKLLIYTTNNLQTGIPSRFSGSGSGTDFTLTISSLQPEDFATYYCLQHGSGYTFGQGTKLEIK
notes: humanized mAb
B2: Hu192A7B9-16 (antibody, V domains shown)
VH: B1 VH with I34V, I51M, A96T, Y100R, S103Y, R104Y, E105S, P106A
VL: B1 VL with T25A, K31R, F36Y, Y49S, T50I, T51A, N53S, G92N, G94W
notes: humanized mAb
B3: Hu192A7B9-4 (antibody, V domains shown)
VH: B1 VH with I34V, I51M, A96T, Y100R, S103Y, R104Y, E105S, P106A
VL: B1 VL with T25A, K31R, F36Y, T50I, T51A, N53S, I58V, G92N, G94W
notes: humanized mAb
B4: Hu192A7B9-2 (antibody, V domains shown)
VH: B1 VH with I34V, M48I, I51M, L67V, Y100R, S103Y, R104Y, E105S, P106A
VL: B1 VL with T25A, K31R, F36Y, T50I, T51A, N53S, I58V, G92N, G94W
notes: humanized mAb
B5: Hu192A7B9-1 (antibody, V domains shown)
VH: EVQLQESGPGLVKPSETLSLTCTVSGGSISSYNVHWIRQPPGKGLEWIGRMRYNGDTSYNSALKSRVTISVDTSKNQFSLKLSSVTAADTAVYYCARGPRGGYYSALFDYWGQGTMVTVSS
VL: B1 VL with T25A, K31R, F36Y, T50I, T51A, N53S, I58V, G92N, G94W
notes: humanized mAb
B6: Hu153A6B1-1 (antibody, V domains shown)
VH: B1 VH with V37I, M48I, L67V, R71V
VL: B1 VL with F36Y, I58V
notes: humanized mAb
B7: Hu192A7B9-5 (antibody, V domains shown)
VH: B5 VH with G27F, I37V, I48M, V67L, V71R, F78V, A96T
VL: B1 VL with T25A, K31R, F36Y, T50I, T51A, N53S, I58V, G92N, G94W
notes: humanized mAb
B8: Hu192A7B9-15 (antibody, V domains shown)
VH: B5 VH with I37V, I48M, V67L, V71R
VL: B1 VL with T25A, K31R, F36Y, Y49S, T50I, T51A, N53S, G92N, G94W
notes: humanized mAb
B9: Hu192A7B9-10 (antibody, V domains shown)
VH: B5 VH with I37V, I48M, V67L, V71R, A96T
VL: B1 VL with T25A, K31R, F36Y, Y49S, T50I, T51A, N53S, I58V, G92N, G94W
notes: humanized mAb
B10: Hu153A6B1-4 (antibody, V domains shown)
VH: B1 VH with A96T
VL: B1 VL with F36Y, I58V
notes: humanized mAb
B11: Hu153A6B1-3 (antibody, V domains shown)
VH: B1 VH
VL: B1 VL with F36Y, I58V
notes: humanized mAb
B12: Hu192A7B9-18 (antibody, V domains shown)
VH: B5 VH with G27F, I29L, S30T, I37V, I48M, V67L, V71R, F78V, A96T
VL: B1 VL with T25A, K31R, F36Y, Y49S, T50I, T51A, N53S, G92N, G94W
notes: humanized mAb
B13: Hu192A7B9-9 (antibody, V domains shown)
VH: B5 VH with I37V, I48M, V67L, V71R
VL: B1 VL with T25A, K31R, F36Y, Y49S, T50I, T51A, N53S, I58V, G92N, G94W
notes: humanized mAb
B14: Hu192A7B9-24 (antibody, V domains shown)
VH: B5 VH with G27F, I29L, S30T, I37V, I48M, V67L, V71R, F78V, A96T
VL: DIQMTQSPSSLSASVGDRVTITCKASQNINRYLNWYQQKPGKAPKVLISIANSLQTGIPSRFSGSGSGTDFTLTISSLQPEDFATYFCLQHNSWYTFGQGTKLEIK
notes: humanized mAb
B15: Hu153A6B1-2 (antibody, V domains shown)
VH: B1 VH with M48I, L67V
VL: B1 VL with F36Y, I58V
notes: humanized mAb
B16: Hu192A7B9-20 (antibody, V domains shown)
VH: B5 VH with I37V, V71R
VL: B14 VL
notes: humanized mAb
B17: Hu192A7B9-3 (antibody, V domains shown)
VH: B5 VH with I37V, I48M, V67L, V71R
VL: B14 VL with V46L, S49Y, I58V, F87Y
notes: humanized mAb
B18: Hu192A7B9-11 (antibody, V domains shown)
VH: B5 VH with G27F, I37V, I48M, V67L, V71R, F78V, A96T
VL: B14 VL with V46L, I58V, F87Y
notes: humanized mAb
B19: Hu192A7B9-22 (antibody, V domains shown)
VH: B5 VH with I37V, I48M, V67L, V71R, A96T
VL: B14 VL
notes: humanized mAb
B20: Hu192A7B9-8 (antibody, V domains shown)
VH: B5 VH with I37V, V71R
VL: B14 VL with V46L, I58V, F87Y
notes: humanized mAb
B21: Hu192A7B9-13 (antibody, V domains shown)
VH: B5 VH
VL: B14 VL with V46L, F87Y
notes: humanized mAb
B22: Hu192A7B9-17 (antibody, V domains shown)
VH: B5 VH with G27F, I37V, I48M, V67L, V71R, F78V, A96T
VL: B14 VL with V46L, F87Y
notes: humanized mAb
B23: Hu192A7B9-7 (antibody, V domains shown)
VH: B5 VH
VL: B14 VL with V46L, I58V, F87Y
notes: humanized mAb
B24: Hu192A7B9-6 (antibody, V domains shown)
VH: B5 VH with G27F, I29L, S30T, I37V, I48M, V67L, V71R, F78V, A96T
VL: B14 VL with V46L, S49Y, I58V, F87Y
notes: humanized mAb
B25: Hu192A7B9-12 (antibody, V domains shown)
VH: B5 VH with G27F, I29L, S30T, I37V, I48M, V67L, V71R, F78V, A96T
VL: B14 VL with V46L, I58V, F87Y
notes: humanized mAb
B26: Hu192A7B9-14 (antibody, V domains shown)
VH: B5 VH with I37V, V71R
VL: B14 VL with V46L, F87Y
notes: humanized mAb
B27: Hu192A7B9-21 (antibody, V domains shown)
VH: B5 VH with I37V, I48M, V67L, V71R
VL: B14 VL
notes: humanized mAb
B28: Hu192A7B9-23 (antibody, V domains shown)
VH: B5 VH with G27F, I37V, I48M, V67L, V71R, F78V, A96T
VL: B14 VL
notes: humanized mAb
B29: Hu192A7B9-19 (antibody, V domains shown)
VH: B5 VH
VL: B14 VL
notes: humanized mAb

Each binder was assayed against T1, human CD3 on cells (human PBMC; Jurkat TCR/CD3 NFAT reporter cells) (human, UniProt P07766 23-207; P04234 22-171; P09693 23-182) (assay: cell-based or functional assay).
Throughout, for Emax: unit not given here.

T1 sequence (P07766 23-207, chain 1 of 3): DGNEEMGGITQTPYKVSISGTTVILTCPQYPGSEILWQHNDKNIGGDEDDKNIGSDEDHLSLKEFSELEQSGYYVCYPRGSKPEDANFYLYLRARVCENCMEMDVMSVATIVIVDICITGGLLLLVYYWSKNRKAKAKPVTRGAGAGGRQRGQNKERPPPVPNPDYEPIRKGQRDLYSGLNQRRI
T1 sequence (P04234 22-171, chain 2 of 3): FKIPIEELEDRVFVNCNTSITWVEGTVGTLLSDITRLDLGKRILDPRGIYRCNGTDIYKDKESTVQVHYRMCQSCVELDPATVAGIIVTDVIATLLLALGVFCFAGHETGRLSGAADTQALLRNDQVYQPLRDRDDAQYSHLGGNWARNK
T1 sequence (P09693 23-182, chain 3 of 3): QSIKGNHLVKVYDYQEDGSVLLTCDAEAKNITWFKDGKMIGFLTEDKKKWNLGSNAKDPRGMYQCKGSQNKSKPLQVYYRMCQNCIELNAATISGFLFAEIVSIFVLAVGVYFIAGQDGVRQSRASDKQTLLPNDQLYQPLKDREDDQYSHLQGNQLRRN

CD3-NFAT Activity by CD3 mAb [% SP34] | Binder
> 50 | B1
> 50 | B2
≤ 50 | B3
≤ 50 | B4
≤ 50 | B5
≤ 50 | B6
> 50 | B7
> 50 | B8
> 50 | B9
≤ 50 | B10
≤ 50 | B11
> 50 | B12
> 50 | B13
> 50 | B14
≤ 50 | B15
> 50 | B16
≤ 50 | B17
> 50 | B18
> 50 | B19
> 50 | B20
≤ 50 | B21
> 50 | B22
≤ 50 | B23
> 50 | B24
> 50 | B25
> 50 | B26
> 50 | B27
> 50 | B28
> 50 | B29

Target: T1, human CD3 on cells (human PBMC; Jurkat …)
Experiment: cell-based or functional assay
Remark: another data set of the same source

% of SP34 [%] | Emax | Binder
73.6 | 4310 | B1
19.8 | 1160 | B6
44.1 | 2580 | B10
45.5 | 2660 | B11
42.6 | 2500 | B15

What follows are binders tested against T2, human CD3 protein (human, UniProt P07766 23-126; P04234 22-105) (assay: ELISA, plate-coated CD3;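 note: binding to plate-immobilized human CD3 protein, bound antibody detected with peroxidase-labelled anti-human IgG and TMB, read as absorbance at 450 nm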).
T2 construct: ELISA coating protein; also called Human CD3D & CD3E Heterodimer Protein
T2 sequence (P07766 23-126 limits assumed, chain 1 of 2): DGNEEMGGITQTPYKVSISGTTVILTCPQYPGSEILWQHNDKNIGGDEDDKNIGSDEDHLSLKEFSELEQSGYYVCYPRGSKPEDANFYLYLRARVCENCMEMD
T2 sequence (P04234 22-105 limits assumed, chain 2 of 2): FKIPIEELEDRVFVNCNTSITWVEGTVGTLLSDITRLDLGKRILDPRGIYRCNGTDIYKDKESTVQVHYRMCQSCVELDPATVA

EC50 [ng/mL] | Binder
3.35 | B1
7.46 | B2
22.8 | B3
194 | B4
148 | B5
16.3 | B6
5.52 | B7
28.8 | B8
5.08 | B9
3.72 | B10
3.87 | B11
8.83 | B12
5.58 | B13
20.2 | B14
3.39 | B15
5.15 | B16
86.2 | B17
7.95 | B18
7.12 | B19
6.42 | B20
14.5 | B21
4.46 | B22
22.6 | B23
8.59 | B24
9.74 | B25
5.02 | B26
5.46 | B27
15.8 | B28
4.98 | B29

The binders below were run against T3, recombinant CD3D&E protein (human CD3-his tag) (human, UniProt P04234 22-105; P07766 23-126, limits assumed) (assay: SPR Biacore, Ab captured on Protein A;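 note: humanized antibodies on a Protein A chip, human CD3-his analyte flowed over in serial dilutions for 3 min, dissociation tracked 120–360 s on a Biacore T200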).
T3 construct: Analyte in Biacore; also called CD3D&E-His; CD3d&ε-His
T3 sequence (P04234 22-105 limits assumed, chain 1 of 2): as the sequence (P04234 22-105 limits assumed, chain 2 of 2) above
T3 sequence (P07766 23-126 limits assumed, chain 2 of 2): as the sequence (P07766 23-126 limits assumed, chain 1 of 2) above

Kd [nM] | koff [s⁻¹] | kon [M⁻¹ s⁻¹] | Binder
61.7 | 0.0344 | 558000 | B1
146 | 0.0143 | 97600 | B2
8.81 | 0.00391 | 444000 | B6
103 | 0.0119 | 116000 | B7
40.9 | 0.00741 | 181000 | B8
122 | 0.0144 | 118000 | B9
58.5 | 0.0195 | 334000 | B10
59.5 | 0.0241 | 406000 | B11
56 | 0.00317 | 56500 | B12
92.7 | 0.0204 | 220000 | B13
9.21 | 0.000594 | 64500 | B14
50 | 0.0201 | 402000 | B15
60.3 | 0.00561 | 93100 | B16
77.7 | 0.00449 | 57800 | B18
55 | 0.00462 | 83900 | B19
58.9 | 0.0475 | 805000 | B20
22 | 0.00631 | 286000 | B21
64.8 | 0.00532 | 82200 | B22
79.6 | 0.0151 | 190000 | B23
283 | 0.024 | 84900 | B24
58.1 | 0.00317 | 54600 | B25
86.7 | 0.0179 | 206000 | B26
55.1 | 0.00499 | 90600 | B27
12.3 | 0.000862 | 70200 | B28
34.5 | 0.00543 | 157000 | B29
